Assay results as given in patent US20250195679A1, “ANTIBODY-DRUG CONJUGATE AND USE THEREOF” (SHANGHAI HUAOTA BIOPHARMACEUTICAL CO., LTD., priority 2022, published 2025).

B1: Antibody-drug conjugate 1: 900698 antibody cysteine-conjugated to SN-38 via Mc-VC-PAB-DMEDA-PEG linker, DAR about 7.8 (conjugate)
VH: QVQLVESGGGLVKPGGSLRLSCAASGFTFSKYAMSWIRQAPGKGLEWVAEISSGGGYINYADSVKGRFTISRDNAKNSLYLQMNSLRAEDTAVYYCARAIYYYGSSYNYYAMDYWGQGTTVTVSS
VL: DIQMTQSPSSLSASVGDRVTITCRASQDVGTAEAWYQQKPGKAPKLLIYWASTRHTGVPSRFSGSGSGTDFTLTISSLQPEDFATYYCQQYSSYPLTFGQGTKLEIK
B2: Antibody-drug conjugate 2: 900698 antibody cysteine-conjugated to SN-38 via MP2-VC-PAB-DMEDA-PEG linker, DAR about 7.8 (conjugate)
VH: QVQLVESGGGLVKPGGSLRLSCAASGFTFSKYAMSWIRQAPGKGLEWVAEISSGGGYINYADSVKGRFTISRDNAKNSLYLQMNSLRAEDTAVYYCARAIYYYGSSYNYYAMDYWGQGTTVTVSS
VL: DIQMTQSPSSLSASVGDRVTITCRASQDVGTAEAWYQQKPGKAPKLLIYWASTRHTGVPSRFSGSGSGTDFTLTISSLQPEDFATYYCQQYSSYPLTFGQGTKLEIK

Assays:
[1] = system: MDA-MB-231 human breast cancer cells; experiment: MDA-MB-231 triple-negative breast cancer CDX mouse efficacy model (Example 8); assay type: in vivo, NPG mice; details: for inhibition of growth of MDA-MB-231 breast cancer: 2.5 and 5 mg/kg i.p. BIW, 8 doses, FIG. 8; for relation of anti-tumor effect to administration dose: 2.5 vs 5 mg/kg i.p. BIW; for inhibitory effect on tumor growth compared with 900698 and Oleclumab: antibodies at 5 mg/kg, i.p. BIW
Description: NPG mice were used to establish an MDA-MB-231 triple-negative breast cancer animal model for assaying the efficacy of the test antibodies. The MDA-MB-231 human breast cancer cells used in this example were incubated in an L-15 medium supplemented with 10% FBS in an incubator at 37° C. without CO2. Before continuous cell culturing for ten generations, about 5.0×10^6 MDA-MB-231 cells were suspended in 100 μL of PBS and then mixed uniformly with an equal volume of Matrigel. The mixture was then inoculated by subcutaneous injection into NPG humanized mice on the right side of the back near the axilla, with an inoculation volume of about 200 μL. The mice were anesthetized with 2%-5% isoflurane prior to the inoculation. On the day of inoculation, 1.0×10^7 PBMCs (100 μL) were injected via the tail vein. When the tumors grew to an average size of about 50-80 mm^3, the […] tumor-bearing mice were randomly divided into 7 groups of 6 based on tumor volume and body weight. […] Oleclumab is an anti-CD73 monoclonal antibody developed by AstraZeneca, currently in Phase 2 clinical trials. The amino acid sequence of the heavy chain of 900201 is as set forth in SEQ ID NO. 43, and the amino acid sequence of the light chain of 900201 is as set forth in SEQ ID NO. 44.

[2] = system: BxPC-3 human pancreatic cancer cells; experiment: BxPC3 CDX pancreatic cancer mouse efficacy model; assay type: in vivo, NPG mice; details: for inhibition of growth of BxPC-3 pancreatic cancer: 1 mg/kg i.p. BIW, 6 doses, FIG. 7; for inhibitory effect on tumor growth compared with 900698, Oleclumab and Uliledlimab: conjugate 1 mg/kg vs antibodies 5 mg/kg, i.p. BIW
Description: NPG mice were used to establish a BxPC-3 pancreatic cancer animal model for assaying the efficacy of the test antibodies. The BxPC-3 human pancreatic cancer cells used in this example were incubated in an RPMI-1640 medium supplemented with 10% FBS in an incubator at 37° C. with 5% CO2. Before continuous cell culturing for ten generations, 100 μL of PBS containing about 1×10^7 BxPC-3 cells was mixed uniformly with an equal volume of Matrigel. The mixture was then inoculated by subcutaneous injection into 18 NPG mice on the right side of the back near the axilla, with an inoculation volume of about 200 μL. The mice were anesthetized with 2%-5% isoflurane prior to the inoculation. On the day of inoculation, 1.0×10^7 PBMCs (100 μL) were injected via the tail vein. When the tumors grew to an average size of about 50-80 mm^3, the 18 tumor-bearing mice were randomly divided into 3 groups of 6 based on tumor volume and body weight.
Oleclumab is an anti-CD73 monoclonal antibody developed by AstraZeneca, currently in Phase 2 clinical trials. Uliledlimab is an anti-CD73 monoclonal antibody developed by I-Mab Biopharma, currently in Phase 1 clinical trials. The amino acid sequence of the heavy chain of 900543 is as set forth in SEQ ID NO. 45, and the amino acid sequence of the light chain of 900543 is as set forth in SEQ ID NO. 46. The amino acid sequence of the heavy chain of Oleclumab is as set forth in SEQ ID NO. 47, and the amino acid sequence of the light chain of Oleclumab is as set forth in SEQ ID NO. 48. The amino acid sequence of the heavy chain of Uliledlimab is as set forth in SEQ ID NO. 49, and the amino acid sequence of the light chain of Uliledlimab is as set forth in SEQ ID NO. 50.

| Molecule | inhibition of growth of MDA-MB-231 breast cancer [1] | relation of anti-tumor effect to administration dose [1] | inhibitory effect on tumor growth compared with 900698 and Oleclumab [1] | inhibition of growth of BxPC-3 pancreatic cancer [2] | inhibitory effect on tumor growth compared with 900698, Oleclumab and Uliledlimab [2] |
| --- | --- | --- | --- | --- | --- |
| B1 | significantly inhibit the growth | positively correlated with the administration dose | significantly superior | significantly inhibit the growth | superior |
| B2 | significantly inhibit the growth | positively correlated with the administration dose | significantly superior | significantly inhibit the growth | superior |
